B1: sim3: SUMOylation-deficient mutant of NPR1 (protein)
chain: MDTTIDGFADSYEISSTSFVATDNTDSSIVYLAAEQVLTGPDVSALQLLSNSFESVFDSPDDFYSDAKLVLSDGREVSFHRCVLSARSSFFKSALAAAKKEKDSNNTAAVKLELKEIAKDYEVGFDSVVTVLAYVYSSRVRPPPKGVSECADENCCHVACRPAVDFMLEVLYLAFIFKIPELITLYQRHLLDVVDKVVIEDTLVILKLANICGKACMKLLDRCKEIIVKSNVDMVSLEKSLPEELVKEIIDRRKELGLEVPKVKKHVSNVHKALDSDDIELVKLLLKEDHTNLDDACALHFAVAYCNVKTATDLLKLDLADVNHRNPRGYTVLHVAAMRKEPQLAASALEKGASASEATLEGRTALMIAKQATMAVECNNIPEQCKHSLKGRLCVEILEQEDKREQIPRDVPPSFAVAADELKMTLLDLENRVALAQRLFPTEAQAAMEIAEMKGTCEFIVTSLEPDRLTGTKRTSPGVKIAPFRILEEHQSRLKALSKTVELGKRFFPRCSAVLDQIMNCEDLTQLACGEDDTAEKRLQKKQRYMEIQETLKKAFSEDNLELGNSSLTDSTSSTSKSTGGKRSNRKLSHRRR
modifications: left off: small tags and cut ends
notes: SUMOylation-deficient mutant of NPR1
B2: S55/59D: phosphomimic mutant of NPR1 at S55/59 (protein)
chain: B1 chain with S55D, S59D, A345I, A346L, A348L
modifications: left off: small tags and cut ends

The values below come from US20230227838A1, “ENHANCED CELL SURVIVAL AGAINST BIOTIC AND ABIOTIC STRESSES THROUGH SALICYLICK ACID-INDUCED NPR1 CONDENSATES” (priority 2020, published 2023).

Residue numbers refer to the chain shown, from its start.

For this test, the system named is CUL3. Put plainly: BiFC assay of interaction with CUL3. It counts as cell-based, Arabidopsis thaliana. The conditions noted are these: 1 mM SA for 5 hr. An excerpt: Plasmid construction and E. coli-based ubiquitination: The coding sequences for all Arabidopsis genes were amplified from cDNA. Point mutations of AtNPR1 (AT1G64280) were generated using the QuikChange II site-directed mutagenesis kit (Agilent). Overlap PCR was used to generate the deletion/truncation mutations of AtCUL3A (AT1G26830) and AtNPR1. The WT and mutated coding sequences for all genes and gene fusions were sub-cloned into the pDONR207 gateway donor vector and confirmed by sequencing. The obtained entry vectors were recombined into either plant or E. coli destination vectors without or with an N- or C-terminal tag. For in planta expression, genes were recombined into the plant binary vectors pK7FWG2, pSITE-4NB and pLN462 to generate C-terminal eGFP, mCherry and HA fusions, respectively; into pK7WGF2, pEG201, pEG202, pEG203 and pEG204 to generate N-terminal eGFP, HA, FLAG, Myc and V5 fusions, respectively. For co-expression of NPR1 and CUL3 in E. coli, NPR1 or its mutant/truncation variants were first recombined into pDEST15 vector to generate N-terminal GST fusions (GST-NPR1). Next, E. coli-codon-optimized coding sequence of AtCUL3A fused to the Myc tag was amplified from pEG203-CUL3 and inserted between NdeI and XhoI in the MCS-II of pCDFDuet-1 to generate pCDFDuet-1:Myc-CUL3 plasmid. The two plasmids, pDEST15-NPR1 and pCDFDuet-1:Myc-CUL3, were co-transformed into the E. coli strain BL21(DE3) and protein expression was induced with 0.25 mM IPTG for 12 hr at 20° C. For co-expression of NPR1 and EDS1 in E. coli, the coding sequence of AtEDS1 (AT3G48090) fused to FLAG tag was inserted between NcoI and NotI in MCS-I of pETDuet-1 to first generate the pETDuet-1:FLAG-EDS1 plasmid. […] For bimolecular fluorescence complementation (BiFC), entry vectors carrying the coding sequences of genes and their mutant variants were recombined into the pSITE-cEYFP-N1 binary vector for C-terminal fusion with the cYFP half (YC), or into the pSITE-nEYFP-C1 for N-terminal fusion with the nYFP half (YN). […]
“NPR1: wild-type Arabidopsis thaliana NPR1 protein, positive regulator of systemic acquired resistance”: the “BiFC signal of interaction with CUL3” value is listed as “clear interactions with CUL3 in discrete cytoplasmic condensates”.

Consider B1, for which the “BiFC signal of interaction with CUL3” value was “more intense”.

As for B2, the “BiFC signal of interaction with CUL3” value is reported as “significantly weaker BiFC signal”.
